From US20220298231A1 (AC IMMUNE, published 2022) come the findings set out here.

The labels stand for the following.
T1: 109-123aa
T1 peptide: {Biotin-Ahx}-QEGILEDMPVDPDNE

T2: 82-96aa
T2 construct: also called alpha-synuclein peptide 82-96
T2 peptide: {Biotin-Ahx}-VEGAGSIAAATGFVK

T3: 100-114aa
T3 peptide: {Biotin-Ahx}-LGKNEEGAPQEGILE

T4: 91-105aa
T4 construct: also called alpha-synuclein peptide 91-105
T4 peptide: {Biotin-Ahx}-ATGFVKKDQLGKNEE

B1: hACI-7067-1101C8-Ab2_H5L1 (antibody, V domains shown)
VH: EVQLVESGGGLVQPGGSLKLSCAASGFSFNIYAMNWVRQAPGKGLEWVGRIRSKSNAYATYYAASVKGRFTISRDDSKNTLYLQMNNLKTEDTAVYYCTRVGLRFYAMDYWGQGTLVTVSS
VL: DVVMTQSPLSLPVTLGQPASISCRSSQSIVHSNANTYLEWYQQRPGQSPRLLIYKVSNRFSGVPDRFSGSGSGTDFTLKISRVEAEDLGVYYCFQGSQGPLTFGQGTKLEIK
notes: VH on human IgG1 constant, VL on human kappa constant
B2: hACI-7067-1101C8-Ab2_H10L1 (antibody, V domains shown)
VH: B1 VH with S28T, M108L
VL: B1 VL
notes: as for B1
B3: hACI-7067-1101C8-Ab2_H8L1 (antibody, V domains shown)
VH: B1 VH with M108L
VL: B1 VL
notes: as for B1
B4: hACI-7067-1101C8-Ab2_H9L1 (antibody, V domains shown)
VH: B1 VH with S28T
VL: B1 VL
notes: as for B1
B5: hACI-7067-1101C8-Ab2_H12L2 (antibody, V domains shown)
VH: B1 VH with S28T, L81A, M108L
VL: B1 VL with I29L
notes: as for B1
B6: ACI-8033-1A12-Ab1 (antibody, V domains shown)
VH: QVHLKQSGADLVRPGASVKLSCKASGYSFTDFYINWVKQTPGQGLEWIARIYPGNNNTFYNEKFKGKATLSAEKSSTTAYMQLSSLTSEDSAVYFCVVGYYGAWGQGTTLTVSS
VL: DVVMTQTPLSLPVSLGDQASISCRSSQSLVHSNGNTHLHWYLQKPGQSPKLLIYKVSNRFSGVPDRFSGSGSGTDFTLKISRVEAEDLGFYFCSQSTHVPWTFGGGTKLEIK
notes: mouse hybridoma mAb; also called 917.1A12C1B4
B7: ACI-8033-1G10-Ab1 (antibody, V domains shown)
VH: DVQLQESGPGLVKPSQTVFLTCTVTGISITTGNYRWSWIRQFPGNKLEWIGYIYYSGTITYNPSLTSRTTITRDTPKNQFFLEMNSLTAEDTATYYCARIYYGNAMDYWGQGTSVTVSS
VL: B6 VL with H37Y, F90V, W101H
notes: mouse hybridoma mAb; also called 917.1G10A10F6
B8: ACI-8033-19A2-Ab1 (antibody, V domains shown)
VH: EVQLVESGGGLVQPKGSLKLSCAASGFSFNTYAMNWVRQAPGKGLEWVARIRSKSNNYATYYVDSVKDRFTISRDDSESMLYLQMNNLKTEDTALYYCVSESAYWGQGTLVTVSA
VL: B6 VL with H37Y, H39Y, F60L, F90V, W101F, G105S
notes: mouse hybridoma mAb; also called 917.19A2E9E5
B9: hACI-7067-1101C8-Ab2_H12L1 (antibody, V domains shown)
VH: B1 VH with S28T, L81A, M108L
VL: B1 VL
notes: as for B1
B10: hACI-7067-1101C8-Ab2_H11L1 (antibody, V domains shown)
VH: B1 VH with S28T, L81A
VL: B1 VL
notes: as for B1
B11: hACI-7067-1101C8-Ab2_H6L1 (antibody, V domains shown)
VH: B1 VH with G49A, T99V, M108S
VL: B1 VL
notes: as for B1
B12: hACI-7067-1101C8-Ab2_H10L2 (antibody, V domains shown)
VH: B1 VH with S28T, M108L
VL: B1 VL with I29L
notes: as for B1
B13: hACI-7067-1101C8-Ab2_H9L2 (antibody, V domains shown)
VH: B1 VH with S28T
VL: B1 VL with I29L
notes: as for B1
B14: hACI-7067-1101C8-Ab2_H11L2 (antibody, V domains shown)
VH: B1 VH with S28T, L81A
VL: B1 VL with I29L
notes: as for B1
B15: hACI-7067-1101C8-Ab2_H5L4 (antibody, V domains shown)
VH: B1 VH
VL: B1 VL with I29L, Y41F
notes: as for B1
B16: ACI-8033-25A3-Ab1 (antibody, V domains shown)
VH: EVQLVESGGGLVQPKGSLKLSCAASGFSFNTYAMNWVRQAPGKGLEWVARIRSKSNNFATYYADSVKDRFTISRDESESMLYLQMNNLKTEDTAMYYCVRSFDYWGQGTTLTVSS
VL: DIKMTQSPSSMYASLGERVTITCKASQDINSYLSWFQQKPGKSPKTLIYRAKRLVDGVPSRFSGSGSGQDYSLTISSLEYEDMGIYYCLQYDEFPFTFGSGTKLEIK
notes: mouse hybridoma mAb; also called 917.25A3E9F6
B17: ACI-8033-1F8-Ab1 (antibody, V domains shown)
VH: DVQLQESGPGLVKPSQSLSLTCSVTGYSITSGFYWNWIRQFPGNKLEWMGYISYDGSNNYNPSLKNRISIIRDTSKNQFFLKLKSVTSEDTATYYCVRGDVDWGQGTTLTVSS
VL: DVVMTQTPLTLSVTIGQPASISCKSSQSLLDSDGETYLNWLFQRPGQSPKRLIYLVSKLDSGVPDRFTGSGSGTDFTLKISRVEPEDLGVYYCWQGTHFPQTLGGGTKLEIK
notes: mouse hybridoma mAb; also called 917.1F8D8E4
B18: ACI-7067-1101C8-Ab2 (antibody, V domains shown)
VH: EVQLVESGGGLVQPKGSLKLSCAASGFSFNIYAMNWVRQAPGKGLEWVARIRSKSNNYATYYADSVKDRFTISRADSESMLYLQMNNLKTEDTAMYYCVRVGLRFYAMDYWGQGTSVTVSS
VL: DVLMTQTPLSLPVSLGDQASISCRSSQSIVHSNGNTYLEWYLQKPGQSPKLLIYKVSNRFSGVPDRFSGSGSGTDFTLKISRVEAEDLGVYYCFQGSQGPLTFGAGTKLELK
B19: ACI-7067-1113D10-Ab1 (antibody, V domains shown)
VH: EVQLVESGGGLVQPKGSLKLSCAASGFTFNTYALHWVRQAPGKGLEWVARIRSKSSNYATYYADSVKDRFTISRDDSQSMLYLQMNNLKTEDTGMYYCVRGGVSPFDYWGQGTTLTVSS
VL: QIVLTQSPAIMSASPGEKVTMTCSASSSVSYMHWYQQKSGTSPKRWIYDTSKLASGVPARFSGSGSGTSYSLTISSMEAEDSATYYCQQWSNNPPTFGGGTKLEIK
B20: ACI-7067-1108B11-Ab2 (antibody, V domains shown)
VH: EVQLVESGGGLVQPKGSLKLSCAASGFTFNTYAMHWVRQAPGKGLEWVARIRSKGSNYATNYADSVKDRFTISRDDSQSMLYLQMNNLKTEDTAMYYCVRGHGSSYFSYWGQGTLVTVSA
VL: QIVLTQSPAIMSASPGERITMTCSANSSVTYMHWYQQKSGTSPKRWIYDTSNLASGVPARFSGSGSGTSYSLTISSMEAEDAATYYCQQWKSHPPTFGAGTKLELK

Positions count from the first letter of the chain named. Where no end group is shown, it is not given here. The star is where a group is joined. Biotin = O=C1N[C@H]2[C@H](CS[C@H]2CCCCC(=O)*)N1; Ahx = NCCCCCC(=O)O

In one assay the target is T5, alpha-synuclein fibrils (Homo sapiens (Human), UniProt P37840 1-140). Description: SPR, mAb captured, 1:1 model. A general note: In SPR one partner is held on a chip, and binding of the other changes the refractive index at the surface.
Experimental: (§1) Non-covalent immobilization of alpha-synuclein antibodies was performed using a target immobilization method of 200 response units (RU). […] Binding affinity of alpha-synuclein antibodies to monomeric or fibrillar alpha-synuclein species was performed using a single-cycle kinetics method. […] A dissociation phase of 900 sec followed the final 50 nM injection. Regeneration of the sensor to the goat anti-human antibody layer was achieved using 3 regenerations of 10 mM Glycine pH 1.7. […] Regeneration of the sensor to the goat anti-human antibody layer was achieved using 3 regenerations of 10 mM Glycine pH 1.7. Results obtained from single-cycle kinetics were evaluated by Biacore K8 evaluation software with 1:1 binding homogenous Langmuir model (with a global Rmax) with Cycle 5 as a blank subtraction. The following kinetic parameters were obtained: on-rate (ka), off-rate (kd), affinity constant (KD, ratio of kd by ka), maximum response (Rmax), and goodness of fit (Chi2).
(§2) Kinetic constants were determined from 1:1 homogenous binding models for binding versus the aggregated form, while a steady state fit was used to determine KD values versus the monomeric form of alpha-synuclein.
Regarding B1, binding was characterised by a dissociation constant (Kd) of 1 nM, the koff (commonly a measure of how fast the partners let go of each other) turned out to be 2.18e-05 s⁻¹ and the association rate constant (kon) (commonly the rate constant with which the complex forms) was 22000 M⁻¹ s⁻¹.

With B2, the kon came to 11500 M⁻¹ s⁻¹.

As to B3, the Kd (as a rule, the concentration at which binding is half-saturated) worked out at 2 nM; the dissociation rate constant (koff) came out at 3.6e-05 s⁻¹; the kon is 17600 M⁻¹ s⁻¹.

Turning to B4, the Kd was found to be 0.9 nM, the koff amounted to 2.25e-05 s⁻¹ and the kon worked out at 23900 M⁻¹ s⁻¹.

B5 showed a Kd of 13.7 nM, a koff of 0.000142 s⁻¹ and an on-rate (kon) of 10400 M⁻¹ s⁻¹.

For the next assay, the target named is T1, 109-123aa. Description: indirect ELISA on biotinylated 15-mer peptide (streptavidin plate), supernatant 1/100. Background: An ELISA detects its analyte on a solid surface through an enzyme-linked reagent.
Experimental: (§3) Epitope mapping for the antibodies derived from stable hybridoma clones was determined using an indirect ELISA on a library of 15-mer peptides covering the entire sequence of human alpha-synuclein from 1 to 140aa. […] Results are expressed as optical density (O.D.). Each bar represents data for an individual antibody.
(§4) Serum-free supernatants were harvested from stable hybridomas. The supernatants containing antibodies of interest were then screened by an indirect ELISA assay to determine epitopes. Epitopes were first determined using a library of 15-mer peptides covering the entire sequence of human alpha-synuclein protein, spanning amino acids (aa) 1-140 with 9aa offset and 6aa overlap. […] Briefly, streptavidin-coated ELISA plates were blocked overnight at 4° C. […] Plates were washed with PBS/0.05% Tween® 20 and then incubated with the hybridoma supernatants at 1/100 dilution for 1 hour at 25° C. […] After final wash, plates were incubated 2 hours at 25° C. with alkaline phosphatase substrate (p-nitrophenyl phosphate disodium hexahydrate; pNPP, S0942, Sigma) and read the absorbance optical density (O.D.) signal at 405 nm using an ELISA plate reader (Tecan, Switzerland).
For B6, the binding result was “binds”.

As for B7, the binding result was “binds”.

Regarding B8, the binding result is reported as “binds”.

A further assay concerns the target T6, human full-length alpha-synuclein (human, UniProt P37840 1-140). Description: SPR, 100 nM monomer, relative to chimeric.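 Also: SPR with antibody variants captured via anti-human Fc IgG on an amine-coupled chip, isotype IgG1 reference channel subtracted, dissociation rate fitted by 1:1 or heterogeneous ligand model.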
Experimental: (§5) Flow channels (Fc) 1-8 were activated with a fresh solution of EDC/NHS (Amine Coupling Kit, 1:1 ratio of both reagents, GE Healthcare Life Sciences, BR100050). […] The chip was deactivated by 1 M ethanolamine-HCl (GE Healthcare Life Sciences, BR100050) at a flow rate of 10 μL/min for 420 s.
(§6) A human IgG1 isotype control diluted in running buffer 1×HBS-EP+ (GE Healthcare Life Sciences, BR100669) was captured onto Fc1 via anti-human Fc IgG at a flow rate of 10 μL/min. […] 10 mM glycine pH 1.5 as regeneration buffer was injected following every dissociation phase.
(§7) The data for reference channel Fc1 and buffer channel were subtracted to generate the sensorgrams. The experimental data was fitted by 1:1 binding model or heterogeneous ligand model.
The molecule B1 returned a Relative koff of 1.1.

B9 registered a Relative koff of 0.2.

Consider B10, for which the Relative koff came to 0.8.

As to B2, the Relative koff amounted to 0.2.

B11 displayed a Relative koff of 0.3.

In turn, B3 came in with a Relative koff of 0.2.

In the case of B12, the Relative koff was 0.2.

B4 yielded a Relative koff of 1.3.

In turn, B13 had a Relative koff of 0.8.

B14 showed a Relative koff of 0.8.

As to B15, the Relative koff stood at 0.1.

Turning to B5, the Relative koff is 0.1.

The next assay deals with T2, 82-96aa. Description: 15-mer peptide ELISA.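 Also: indirect ELISA of hybridoma supernatant antibodies (1/100, 1 h) binding immobilized 15-mer peptides spanning human alpha-synuclein 1-140 on streptavidin plates, read as optical density.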
Experimental: as §3, §4
Consider B6, for which the binding result was “no binding (tested: supernatant 1/100)”.

As to B7, the binding result is recorded as “no binding (tested: supernatant 1/100)”.

Take B8: the binding result is given as “no binding (tested: supernatant 1/100)”.

For the molecule B16, the binding result is on record as “no binding (tested: supernatant 1/100)”.

The target of another assay is T1, 109-123aa. Description: 15-mer peptide ELISA.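 Also: indirect ELISA of hybridoma supernatant antibodies (1/100, 1 h) binding immobilized 15-mer peptides spanning human alpha-synuclein 1-140 on streptavidin plates, read as optical density.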
Experimental: as §3, §4
For the molecule B16, the binding result is “no binding (tested: supernatant 1/100)”.

Regarding B17, the binding result is “no binding (tested: supernatant 1/100)”.

The next assay deals with T3, 100-114aa. Description: 15-mer peptide ELISA.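 Also: indirect ELISA of hybridoma supernatant antibodies (1/100, 1 h) binding immobilized 15-mer peptides spanning human alpha-synuclein 1-140 on streptavidin plates, read as optical density.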
Experimental: as §3, §4
Turning to B6, the binding result is on record as “no binding (tested: supernatant 1/100)”.

On to B8, for which the binding result is reported as “no binding (tested: supernatant 1/100)”.

As to B16, the binding result is “no binding (tested: supernatant 1/100)”.

In the case of B17, the binding result was “no binding (tested: supernatant 1/100)”.

The next assay has as its target T4, 91-105aa. Description: 15-mer peptide ELISA.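 Also: indirect ELISA of hybridoma supernatant antibodies (1/100, 1 h) binding immobilized 15-mer peptides spanning human alpha-synuclein 1-140 on streptavidin plates, read as optical density.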
Experimental: as §3, §4
For B6, the binding result is on record as “no binding (tested: supernatant 1/100)”.

On to B7, for which the binding result is listed as “no binding (tested: supernatant 1/100)”.

On to B8, for which the binding result is “no binding (tested: supernatant 1/100)”.

Regarding B16, the binding result is reported as “no binding (tested: supernatant 1/100)”.

Consider B17, for which the binding result is listed as “no binding (tested: supernatant 1/100)”.

In the next assay the target is T6, human full-length alpha-synuclein. In words: SPR, mAb captured, steady-state fit.
Experimental: as §1, §2
In the case of B1, binding was put at a Kd of 20.1 nM.

Regarding B9, the Kd came out at 64.4 nM.

With B10, the Kd turned out to be 48 nM.

Regarding B2, binding was put at a Kd of 48.2 nM.

B3 yielded a Kd of 40 nM.

B12 came in with a Kd of 35.1 nM.

As for B4, the affinity, expressed as Kd, was 18.2 nM.

Regarding B13, binding was put at a Kd of 66.9 nM.

With B14, the dissociation constant (Kd) worked out at 80.1 nM.

On to B5, for which binding was put at a Kd of 28.7 nM.

The next assay deals with T5, alpha-synuclein fibrils. Description: cell-based or functional assay.
Consider B18, for which the “IC50, de novo alpha-synuclein aggregates formed in seeded mouse primary cortical neurons” value (“IC50 … in seeded mouse primary cortical neurons” for short) came to 114 nM and the “IC50, de novo alpha-synuclein aggregates formed in the seeded in vitro cellular model” value (from here on “IC50 … in vitro cellular model”) came out at 3.3 nM.

For B19, the “IC50 … in seeded mouse primary cortical neurons” value was determined as 702 nM and the “IC50 … in vitro cellular model” value was 39.6 nM.

As for B20, the “IC50 … in seeded mouse primary cortical neurons” value worked out at 143 nM and the “IC50 … in vitro cellular model” value turned out to be 4.5 nM.

The target in a further assay is T5, alpha-synuclein fibrils. In words: SPR, 450 nM aggregates, relative to chimeric.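 Also: surface plasmon resonance with anti-human Fc capture, human IgG1 isotype control channel and buffer run subtracted, dissociation rates fitted by 1:1 or heterogeneous ligand binding model.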
Experimental: as §5, §6, §7
B1: the Relative koff worked out at 1.5.

In the case of B9, the Relative koff came out at 1.

For the molecule B10, the Relative koff was found to be 62.

In turn, B2 gave a Relative koff of 1.7.

Turning to B11, the Relative koff was found to be 1.

Molecule B3 yielded a Relative koff of 1.1.

On to B12, for which the Relative koff amounted to 0.8.

Regarding B4, the Relative koff came to 5.5.

As to B13, the Relative koff amounted to 2.3.

In turn, B14 yielded a Relative koff of 5.4.

Consider B15, for which the Relative koff stood at 0.2.

For B5, the Relative koff is 0.3.
